Laboratory results reported in patent US5739291A, “Glutamate receptor antibodies” (The Salk Institute For Biological Studies, priority 1995, dated 1998).

Target: T1, homomeric GluR6 receptor (Rattus norvegicus, UniProt P42260, I567V/Q621R/Y571C)
T1 construct: A 4559 base pair cDNA encoding a protein of 884 amino acid residues was engineered from RC11 and RC27; expressed in transfected cells; host or cells: Xenopus oocytes injected with in vitro transcribed GluR6 RNA
Test: Homomeric GluR6 ion channel in Xenopus oocytes injected with in vitro transcribed RNA
Type: cell-based

T1 sequence (P42260 with tags, fused parts or gaps I567V/Y571C/Q621R): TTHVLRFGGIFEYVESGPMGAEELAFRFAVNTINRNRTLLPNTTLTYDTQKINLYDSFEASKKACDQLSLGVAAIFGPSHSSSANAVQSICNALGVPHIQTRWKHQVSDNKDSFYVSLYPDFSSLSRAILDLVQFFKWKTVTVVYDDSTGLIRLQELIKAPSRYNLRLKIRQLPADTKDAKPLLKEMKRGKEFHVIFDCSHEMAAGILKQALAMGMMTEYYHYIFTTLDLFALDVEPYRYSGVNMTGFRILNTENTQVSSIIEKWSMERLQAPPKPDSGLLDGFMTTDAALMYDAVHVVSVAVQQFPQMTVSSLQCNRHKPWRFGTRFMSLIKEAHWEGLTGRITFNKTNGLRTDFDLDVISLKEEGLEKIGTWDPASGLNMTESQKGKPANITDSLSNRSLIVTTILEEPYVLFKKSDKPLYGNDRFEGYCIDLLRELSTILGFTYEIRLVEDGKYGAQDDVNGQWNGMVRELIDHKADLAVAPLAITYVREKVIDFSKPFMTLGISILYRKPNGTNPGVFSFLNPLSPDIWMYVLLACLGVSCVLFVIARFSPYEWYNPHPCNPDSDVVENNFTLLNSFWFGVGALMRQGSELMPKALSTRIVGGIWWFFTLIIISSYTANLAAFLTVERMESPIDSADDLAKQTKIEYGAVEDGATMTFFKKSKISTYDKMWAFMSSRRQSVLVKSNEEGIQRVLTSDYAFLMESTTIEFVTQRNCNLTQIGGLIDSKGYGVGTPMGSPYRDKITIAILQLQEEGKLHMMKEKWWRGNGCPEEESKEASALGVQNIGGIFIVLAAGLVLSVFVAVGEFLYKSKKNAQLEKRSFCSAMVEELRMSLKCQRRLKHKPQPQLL

B1: concanavalin A (protein)
chain: STHETNALHFMFNQFSKDQKDLILQGDATTGTDGNLELTRVSSNGSPQGSSVGRALFYAPVHIWESSAVVASFEATFTFLIKSPDSHPADGIAFFISNIDSSIPSGSTGRLLGLFPDANVIRNSTTIDFNAAYNADTIVAVELDTYPNTDIGDPSYPHIGIDIKSVRSKKTAKWNMQNGKVGTAHIIYNSVDKRLSAVVSYPNADSATVSYDVDLDNVLPEWVRVGLSASTGLYKETNTILSWSFTSKLKSN
notes: concanavalin A, used to decrease receptor desensitization
- effect on desensitization (10 μM for 5 minutes): efficiently decreases desensitization
- increase of current elicited by kainate and glutamate compared to peak current before treatment (equimolar agonist concentrations): 75 to 150 fold
